Assays:
[1] = molecular target: CDHR3 Cys529→Tyr variant with Asn186→Ala (human) (UniProt Q6ZTQ4); assay: virus bound to transfected HeLa cells 2 h p.i., viral RNA by qRT-PCR, against CDHR3 Cys529→Tyr without the mutation
[2] = molecular target: human cadherin-related family member 3 (CDHR3), wild-type (human) (UniProt Q6ZTQ4); assay: cell-based or functional assay
[3] = molecular target: CDHR3 Cys529→Tyr variant with Asn186→Ala (human) (UniProt Q6ZTQ4); assay: cell-based or functional assay
[4] = molecular target: CDHR3 Cys529→Tyr variant (human) (UniProt Q6ZTQ4); assay: cell-based or functional assay
[5] = molecular target: CDHR3 Cys529→Tyr variant (human) (UniProt Q6ZTQ4); assay: virus bound to transfected HeLa cells 2 h p.i., viral RNA by qRT-PCR

**Q.** For “rhinovirus C15 (RV-C15), recombinant virus from the clinical isolate's infectious clone”, which percent impairment of virus binding [1] is on record?
**A.** Its percent impairment of virus binding is greater than 70%.

**Q.** What about the replication (RV-C RNA compared to input) [2] of the same substance?
**A.** Its replication (RV-C RNA compared to input) is 2 log.

**Q.** And the replication [3]?
**A.** Its replication is 70%.

**Q.** What about the progeny yield relative to the wild-type CDHR3 [4] of the same substance?
**A.** Its progeny yield relative to the wild-type CDHR3 is 10 fold.

**Q.** And the replication in HeLa-E8 cells (viral RNA from 2 h to 24 h post infection) [4]?
**A.** Its replication in HeLa-E8 cells (viral RNA from 2 h to 24 h post infection) is greater than 2 log.

**Q.** And the fold binding relative to the wild-type CDHR3 [5]?
**A.** The fold binding relative to the wild-type CDHR3 was 10 fold.

Source: US20170082609A1
